# Measurements as given in ChEMBL document CHEMBL4382202, “1-(2-Hydroxybenzoyl)-thiosemicarbazides are promising antimicrobial agents targeting d-alanine-d-alanine ligase in bacterio” (Eur J Med Chem, 2018).
# Experiments:
# [1] = compound: O=C(NNC(=S)Nc1ccc(Cl)c(Cl)c1)c1ccccc1O; assay: Inhibition of Enterococcus faecalis JH2-2 C-terminal 6His-tagged DdlB expressed in Escherichia coli LMG194 assessed as Vmax of ATP at 10 uM by Biomol Green reagent assay (reference value: 89.05 +/- 5.41 microM/min)
# [2] = compound: O=C(NNC(=S)Nc1ccc(Cl)c(Cl)c1)c1ccccc1O; assay: Inhibition of Enterococcus faecalis JH2-2 C-terminal 6His-tagged DdlB expressed in Escherichia coli LMG194 assessed as Km2 of D-Ala using 500 uM ATP by Biomol Green reagent assay
# [3] = compound: O=C(NNC(=S)Nc1ccc(Cl)c(Cl)c1)c1ccccc1O; assay: Inhibition of Enterococcus faecalis JH2-2 C-terminal 6His-tagged DdlB expressed in Escherichia coli LMG194 assessed as Vmax of D-Ala at 1 uM by Biomol Green reagent assay (reference value: 61.95 +/- 1.11 microM/min)
# [4] = compound: O=C(NNC(=S)Nc1ccc(Cl)c(Cl)c1)c1ccccc1O; assay: Inhibition of Enterococcus faecalis JH2-2 C-terminal 6His-tagged DdlB expressed in Escherichia coli LMG194 assessed as Km1 of D-Ala using 500 uM ATP by Biomol Green reagent assay
# [5] = compound: O=C(NNC(=S)Nc1ccc(Cl)c(Cl)c1)c1ccccc1O; assay: Inhibition of Enterococcus faecalis JH2-2 C-terminal 6His-tagged DdlB expressed in Escherichia coli LMG194 assessed as Km of D-Ala at 1 uM by Biomol Green reagent assay (reference value: 5.62 mM)
# [6] = compound: O=C(NNC(=S)Nc1ccc(Cl)c(Cl)c1)c1ccccc1O; assay: Inhibition of Enterococcus faecalis JH2-2 C-terminal 6His-tagged DdlB expressed in Escherichia coli LMG194 assessed as Km of ATP using 50 mM D-Ala substrate by Biomol Green reagent assay
# [7] = compound: O=C(NNC(=S)Nc1ccc(Cl)c(Cl)c1)c1ccccc1O; assay: Inhibition of Enterococcus faecalis JH2-2 C-terminal 6His-tagged DdlB expressed in Escherichia coli LMG194 assessed as Km of D-Ala at 10 uM by Biomol Green reagent assay (reference value: 5.62 mM)
# [8] = compound: O=C(NNC(=S)Nc1ccc(Cl)c(Cl)c1)c1ccccc1O; assay: Inhibition of Enterococcus faecalis JH2-2 C-terminal 6His-tagged DdlB expressed in Escherichia coli LMG194 assessed as Vmax of ATP at 1 uM by Biomol Green reagent assay (reference value: 89.05 +/- 5.41 microM/min)
# [9] = compound: O=C(NNC(=S)Nc1ccc(Cl)c(Cl)c1)c1ccccc1O; assay: Inhibition of Enterococcus faecalis JH2-2 C-terminal 6His-tagged DdlB expressed in Escherichia coli LMG194 assessed as Vmax of D-Ala at 10 uM by Biomol Green reagent assay (reference value: 61.95 +/- 1.11 microM/min)
protein,measurement,setting,value
"D-alanine--D-alanine ligase (Enterococcus faecalis (strain ATCC 700802 / V583)), Q47758 (protein) MKIILLYGGRSEEHDVSVLSAYSVLNAIYYKYYQVQLVFISKDGQWVKGPLLSERPQNKEVLHLTWAQTPEETGEFSGKRISPSEIYEEEAIVFPVLHGPNGEDGTIQGFMETINMPYVGAGVLASANAMDKIMTKYLLQTVGIPQVPFVPVLRSDWKGNPKEVFEKCEGSLIYPVFVKPANMGSSVGISKVENREELQEALEEAFRYDARAIVEQGIEAREIEVAILGNEDVRTTLPGEVVKDVAFYDYDAKYINNTIEMQIPAHVPEEVAHQAQEYAKKAYIMLDGSGLSRCDFFLTSKNELFLNELNTMPGFTDFSMYPLLWENMGLKYSDLIEELIQLALNRFK",Vmax,[1],23.5 µM/min
same,Km,[2],10.5 mM
same,Vmax,[3],48.6 µM/min
same,Km,[4],0.487 mM
same,Km,[5],7.01 mM
same,Km,[6],0.691 mM
same,Km,[7],9.63 mM
same,Vmax,[8],72.1 µM/min
same,Vmax,[9],45.1 µM/min
